Molecular target: T1, RadA S372A (Escherichia coli, UniProt P24554 1-460, S372A)
T1 sequence: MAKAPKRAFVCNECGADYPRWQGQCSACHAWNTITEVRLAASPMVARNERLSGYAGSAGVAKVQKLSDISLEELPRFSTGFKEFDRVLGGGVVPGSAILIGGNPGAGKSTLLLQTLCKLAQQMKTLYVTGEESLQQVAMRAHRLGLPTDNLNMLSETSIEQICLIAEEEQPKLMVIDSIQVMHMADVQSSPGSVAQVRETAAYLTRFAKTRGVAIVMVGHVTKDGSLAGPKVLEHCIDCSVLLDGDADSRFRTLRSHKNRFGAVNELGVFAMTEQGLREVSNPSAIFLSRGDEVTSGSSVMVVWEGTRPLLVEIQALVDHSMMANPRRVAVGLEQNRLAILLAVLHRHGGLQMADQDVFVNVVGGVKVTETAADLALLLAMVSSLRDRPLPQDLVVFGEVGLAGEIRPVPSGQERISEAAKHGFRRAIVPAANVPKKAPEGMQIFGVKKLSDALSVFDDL
Assay: EMSA; 1 mM ADP; retains DNA binding; 50 mM Tris-HCl pH 7.5, 10 mM MgCl2, 0.1 mM EDTA, 75 mM NaCl, 5 mM DTT, 100 ug/ml BSA, 1 mM nucleotide, 100 fmol DNA, 37 C for 20-30 min; 6% TBE polyacrylamide gel at room temperature
Settings: protein: recombinant; tags: eXact tag cleaved; 2 extra N-terminal residues Thr-Ser remain; chain copies: 6

## TTTTTTTTTTTTTTTTTTTTTTTTTTTTTT (ssDNA) [poly(dT)30]
  binding result: binds
